Test: soluble on expression in E. coli; label from the status in PepcDB or PDB records

Row | Sequence | soluble on expression in E. coli
1 | MKLERVTVKNFRSHSDTVVEFKEGINLIIGQNGSGKSSLLDAILVGLYWPLRIKDIKKDEFTKVGARDTYIDLIFEKDGTKYRITRRFLKGYSSGEIHAMKRLVGNEWKHVTEPSSKAISAFMEKLIPYNIFLNAIYIRQGQIDAILESDEAREKVVREVLNLDKFETAYKKLSELKKTINNRIKEYRDILARTE | soluble
2 | YIKMISNAKRSILIQTPYFIPDASLLDALRIACLSGIDVNIMIPNKPDHAFVYWATLSYIGDLLKAGATVYIYDNGFIHAKTIVVDDEIASVGTANIDVRSFRLNFEVNAFIYDITIAKKLVSTFKEDLLVSRKFTYEEYLQRPLWIR | not soluble
3 | MAKPIPVKVVVLTTFEIGAVTGDRPGEFQPWVEGLPLTETIAVPGLRHPARYSPKDGVLGVMTDMRARARESVAALLLDKRFDFSKTYWLVAGIAGVDPKAASIGSAAWARYVVDADPIYEVDDREIPADWPYGLYALETERPNVKGSAEGSSGMVWALNWRLVDWAYGLTAKVEIPDHPGLAALRAPYVGDPNAQRPPFVLKGEALGATRFWHGAKRTQWAQDWVKLWTDGAGVFVMTDCEDQGILDVLDLYAKAGRVDFQRVMVLRTASNYSRPPLGAPAFPRAFHDEGAVSAFDSAYRVGSVVVRELTARWDRYEANTPDMTAIGGTAKLEHHHHHH | not soluble
4 | MGSDKIHHHHHHTEYPLPAAQSRLIGENQYYTVPEGKHTLEDIAAKYQLGLSNLLEANPGVDPFLPKPGSQLLIPLQLILPNAPREGIVINVAEMRLYYYPKGKKTVEVLPIGIGQIGKDTPENWVTSVQRKRANPTWTPTPRIRKEYAAKGEILPAVWPAGPDNPMGLYALYIGNLYAIHGTNASFGIGLRVSQGCVRLRHEDIEHLFKNVPVGTRVQFVNQPIKATEEPDGKRYLAVHQPLSRTVAEFESNEPVAISLPRDIAKFIAKADTNSSVIKKLLDERTGVPMRINQ | not soluble
5 | SSRTFTEQLNALLELGCETLGSSFGTLSRVHGDEYVFEAVTAPTTADLEAGRTTSIEDLPNCRHVVEHREPLAIRDVEADAPDLADPEWGIVNYIGAPVVVDGAVYGTFCFYGLEPRTAEFTQWDLTFVRLLSDWAGYELERQRHSEQRDALNTAF | not soluble
6 | MGSDKIHHHHHHMHTDINALFAALWQDYIQMTPSAAKVHALLGHGKPIINDHIALRTFNIAKVNLDVLAKHFTSLGYVACGDYKFEQKKLVAKHFEHPDSTQPKVFISELLVEEFSPALQATIQGLIAQVDVAATTADNFIYSGRHWSLDSQTYEDLLAESEYAAWVAAFGYRANHFTVSINHLDGFDTLESVNNALKQAGFVLNSSGGEIKGSPEVLLEQSSTMADKIGVEFTNATVEIPSCFYEFALRYPMANGELYTGFVAASADKIFESTNVNKA | not soluble
7 | MGSDKIHHHHHHMAKINLIIAETDGAYLKGLVNYISSNFEDTFRITCFTNREYLEKYISSGRISDILLIKTDMFYEGLMKNSIKSIAILSEGGNMDEFNGLPVVKKYQPGEKLCREILNIYYNNNPEVAPCKEVKKQEGSIITLYSPVGGIGKSTIAIEMAKKLSDSNKKVLYLNLEDLQSTLVFFECSTSKNMSDFLYFIKERDENFKEVLKDIVLKDEESGINYFAPVDSVLDIEDLKVDDVKFMLQKLIEVNMYNYIIIDLSSTFNINYKTIFEMSSKIIVPIGQDKLSSVKLQNFLKQLDNLENFSFIQNKYKDNLETIIPHVLLREKKPIIQKIYYDEALESVSSLIYLKNRASTFLRCIDELIMKLL | not soluble
8 | MRDVAIIGVKNTKFGELWERSLRDIVVEAGIGAIQDAGVSGKDIDALYIGNMSGGRFVEQEHIGALIADYSGLSRNLHVPATRVEAACASGGLALRQAIMAVASGYSEIVVAAGAEKMTDVGSEEASSALAAAADREWEGMAGATFPGLYAMIAKLHMHMYGTTGEQLAEVAVKNHKNGSFNPIAQYKNTITVDNVLNSIMVADPLHIFDCSPITDGASALVLAPAEIAHKYTDTPIYIKATAQASDTIALHDRRDITTLDATVMAAKRAYSMAKLTPEDIDLVEVHDCFTIAEICAIEDLGFAEKGKGGIVTENGETAIGGRIPVNTSGGLKACGHPVGATGIKQAVEIVTQLRGEAGKRQVEGAEYGMTHNVGGSGATAVVHIFSRGM | not soluble
9 | MGSDKIHHHHHHMFNLKPELVARLERVLTSVEMLLPRPTAPVDWSVCHAASWRRHSFSGYLEPVRQTDTVTLPELLGIEKQKEVMTNNTLQFLRGLPANNALLWGSRGTGKSSLVKALLNEYAAQGLRIVQVEKEDLIYLSEIFAAVENEPYRFILLCDDLSFEVGELSYKMLKSALDGSVYSAPENVLIYVTSNRRHLIPEYESDNVGWKYVNGELQQSEAMEEKISLSDRFGLWVAFHVFSQDRYLEAVRLCIEREARQRRVEIPWAKEIEREAIQWSHDKSKRCGRTAFQFSRHWVGRYLLGGR | not soluble
10 | MATDHIRYDVLARDALRGVLRHVLTDVAQHGLPGEHHFFITFQSKGDGVKLSPRLLAQYPEEMTVVLQHQFWDLVVTEDRFEVGLSFGGIPERLVVPFASIKSFFDPSVKFGLQFEAADEVDETGEADDGTELVTAAPAPVALPTSSATTDSSAPSDDEPPRSGEGAEVVRLDRFRKKLEHHHHHH | soluble
11 | MSLEEYPQMIVFEDVPYGFWAYDAIMDLAYHKIILGYGNGKYGVGDLTTREQVAGIIYRTLEMKEEGSVANPYKDISDSTTTFKKEILALTKRGVFTGDGQGNFRPKAPVSRAEMAVILKRAFTFETKQKHTFKDIPKGHWAEDAISALQSNNVVRGTGNGMYELNRPVPREQYAQFINNAIINYHLKEDWREGHHHHHH | not soluble
12 | MRPVVHVVGGGPGDPELLTVKGARLLGEARFVLYTGSLFPEGALRELAPKAALLDSKGMTLEEIVLALAEEARKGGGVVRLHSGDPGLYGTLLEEKEALEALGVGVEVVPGVTAAFALAARAGLSLTAPGVAQAVAFTRLGVRTPVPEGQDPKSLARKGLTLAVYLSGMHPRRLSRELLEAGLPGDTPVLYGHKVAQPGEEVGLTDLKGLAHLPARDTTVYLVGEALRAKGVRSLLYDPSFKHRYRR | soluble
13 | MAHHHHHHMAISATGTLAVLKVYQLTDAAARLSRAEVDAALEELMGLRVNDSLVQYLSYCYVPPHRVVLVMQYVPGGTLREMKSRYGRKLPLTAVRRNVASMLRGLAHLHGRGVIHGRLCPENVMVGVEGRWRLKGMLLGAAPLIMHQETYYVSPEVAAGGAKTAANDVYALGLLLLAMLTDSHPWQWSANAALDRSRKELDSLLADSTAFREALRNGLLTPVPTPADTDETLRTVLEACLRTAPGDRPTALRLQELRCDRTS | not soluble
14 | MSLADTYRPEISVAGFIPLPDCGRQVYNFNPGWRFFKGDIRGAEAVNFDDRSWEVVSTPHTVELMPAEGSGCRNYQGPAWYRKHFVVPTATKGQRVLLHFEAAMGKQVLYLNGKRVQEHLGGYLPFTLDLTANGVQAGDSCLLAVYTDNSNDKSYPPGKPQYTLDFAYHGGIYRDVWMIAKSPVAITDAIDSRTVGGGGVFVHFDKISEKSAQVYVETEIQNDNTRSESVTIETTLTDAEGNVIKRTSGKLSLNSGEKKSIRQQMEVRNPKLWSPDAPYLYRVQSRIKKGNRSIDGGTTRIGIRLAEFRGKEGFWLNGKPFGQLVGANRHQDFAYVGNALPNSQQWRDAKRLRDAGCTIIRVAHYPQDPSFMDACDELGLFVIVATPGWQYWNKDPKFGELVHQNTREMIRRDRNHPSVLMWEPILNETRYPLDFALKALEITKEEYPYPGRPIAAADVHSAGVKEHYDVVYGWPGDDEKEDKPEQCIFTREFGENVDDWYAHNNNNRASRSWGERPLLIQALSLAKSYDEMYRTTGQFIGGTQWHPFDHQRGYHPDPYWGGIYDAFRQKKYAYEMFRSQSPASLQHPLAECGPMIFLAHEMSQFSDKDVVVFSNCDSIRLSIYDGTKTWTKPVVHAKGHMPNAPVIFENVWDFWEARGYSYTQKNWQKVNMVAEGIIDGKVVCTQKKMPSRRSTKLRLYADTQKVNLVADGSDFIVVVAEVTDDSGNVRRLAKENIVFTVEGEGEIIGDARIGANPRAVEFGSAPLLIRSTRKAGKIKVKAHVQFEGTQAPTAAEMEFESVPAELPFCYDEKEGHHHHHH | soluble
15 | MIALFSVLIAFLTPQANAVISGELNCTTYNGTAFVYTPSATACSNAISDSSCAALYPASDPATGYPAPGNDVERPFACYTTATPTPAPVVPDMRSAALKNCARTCGLCCKTADFDCPNVQFPRLTCSTITNEQCRSSVWRTIIATDCPSACGFCNQGGCVDGVMDCANDLSICNSVGMQEFVNQYCQRTCNRCSSSTAATGTGGSCGGRYIADSSTACAAWKLNGFCTNTFYTAAQRRSYCATTCSLC | not soluble
16 | MVNGDGNPREVIEDLAANNPAIQNIRLRHENKDLKARLENAMEVAGRDFKRAEELEKAKQALEDQRKDLETKLKELQQDYDLAKESTSWDRQRLEKELEEKKEALELAIDQASRDYHRATALEKELEEKKKALELAIDQASQDYNRANVLEKELE | soluble
17 | MKLIRGIHNLSQAPHGCVLTIGNFDGVHRGHRALLQGLQEEGRRRGLPVVVMIFEPQPLELFATDKAPARLTRLREKLHYLAQCGVDYVLCVKFDRRFAALTAQTFISELLVERLGVQFLAVGDDFRFGASRAGDFLLLQKAGAEYGFAVSSTQTFCEGGVRISSTAVRQALAEDNLALAESLLGHPFTISGRVVHGDELGRTIGFPTANLPLRRQVSPVKGVYAVEVTGLGDKPLPGVANIGTRPTVAGVRQQLEVHLLDVVMDLYGRHIDVILRKKIRNEQRFASLDELKAQIARDELTARKFFGLAGQV | not soluble
18 | MEKNDIFVVIPAYNEEKMIKNTLINLKSHGYENIIVVDDGSRDNTSKIAISEEVIVCKHIINRGLGGALKTGLKCAVKYNPKVIVTFDADGQHDPEDIFKVSEPILEDSFDVVVGSRLIDENELKNMPLIKKIGNWGLNFITYLMGGRMVTDSQGGLRAFSYDAAEIVSKQLKSNRYEVSSEFIVLFKKNNLKFKEVPIKTIYTEYSMARGTNVITGFKILFKLLIQKLILEHHHHHH | soluble
19 | MTAAPGTSMATPHVAGIAALLLQAHPSWTPDKVKTALIETADIVKPDEIADIAYGAGRVNAYKAINYDNYAKLVFTGYVANKGSQTHQFVISGASFVTATLYWDNANSDLDLYLYDPNGNQVDYSYTAYYGFEKVGYYNPTDGTWTIKVVSYSGSANYQVDVVSDGSLSQPGSSPSPQPEPTVDAKTFQGSVHLEHHHHHH | not soluble
20 | MMVPPRPGFAPLSLESINDRMEMHLFLTSACILYHIYIRDNLLIYQEIWTKYWRGRLAESALKNEISALYLRLPFPRPPTLQSIAEQEVICKDAAPIYVYCSREAMLSHVQSKDLCQFGRANLLACTLAPYRTGVTIEMVRCLFKRLRDGNRVEAGTGEEDLSHFVAFLPTTAFRRGPRFYLGGENVQFFLREGGLELPCHIIAFGRALFSEILADGSSWDWKSVGESSRLNHVRASVELSRNVPTAETTDNWAEAALGTDAVYPVRPPNLTPTQDHPCKPLLSGNRVPNERHRPWKRFFKKLRSVSKHFYFNRLEHHHHHH | soluble

— the DeepSol protein solubility set
